Tested on: Escherichia coli TOP10
Assay: shrunken log2 fold change of peptide-encoding DNA abundance (4.5 h post-induction vs induction); higher = less antimicrobial activity (less host growth inhibition)
Settings: time post-induction: 4.5 h; library: site-saturation at positions 5, 18, 19, 20
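Note: peptides expressed intracellularly from a pBAD plasmid library in pooled LB shake-flask culture, induced with 0.3% L-arabinose, DNA abundance read by NGS, three biological replicates, DESeq2 with apeglm shrinkage.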

Going from RRIRFRPPRLPRPRPRPRAIPRP to RRIRFRPPRLPRPRPRPRAYPRP, the “shrunken log2 fold change” value falls from 0.0543 to -0.23.

Compared with RRIRFRPPRLPRPRPRPRCQPRP, RRIRFRPPRLPRPRPRPRDAPRP is higher in “shrunken log2 fold change” value: 0.24 for the first, 0.541 for the second.

RRIRFRPPRLPRPRPRPRDSPRP and RRIRFRPPRLPRPRPRPREFPRP are within 0.2 log units of each other in “shrunken log2 fold change” value: -0.051 for the first, 0.0793 for the second.

RRIRFRPPRLPRPRPRPREKPRP and RRIRFRPPRLPRPRPRPRETPRP are within 0.2 log units of each other in “shrunken log2 fold change” value: -0.0136 for the first, 0.0137 for the second.

RRIRFRPPRLPRPRPRPREWPRP and RRIRFRPPRLPRPRPRPRGFPRP are within 0.2 log units of each other in “shrunken log2 fold change” value: 0.112 for the first, 0.27 for the second.

RRIRFRPPRLPRPRPRPRGIPRP and RRIRFRPPRLPRPRPRPRHVPRP are within 0.2 log units of each other in “shrunken log2 fold change” value: -0.123 for the first, -0.0276 for the second.

RRIRFRPPRLPRPRPRPRIEPRP and RRIRFRPPRLPRPRPRPRKMPRP are within 0.2 log units of each other in “shrunken log2 fold change” value: -0.0896 for the first, 0.0208 for the second.

First: RRIRFRPPRLPRPRPRPRLLPRP
Second: RRIRFRPPRLPRPRPRPRLNPRP
The “shrunken log2 fold change” value of the first is higher: 0.342 for the first, -0.228 for the second.

RRIRFRPPRLPRPRPRPRMDPRP and RRIRFRPPRLPRPRPRPRMLPRP are within 0.2 log units of each other in “shrunken log2 fold change” value: -0.0641 for the first, 3.84e-05 for the second.

Compared with RRIRFRPPRLPRPRPRPRNAPRP, RRIRFRPPRLPRPRPRPRNLPRP is lower in “shrunken log2 fold change” value: 0.347 for the first, -0.016 for the second.

RRIRFRPPRLPRPRPRPRRAPRP and RRIRFRPPRLPRPRPRPRRDPRP are within 0.2 log units of each other in “shrunken log2 fold change” value: 0.678 for the first, 0.798 for the second.

Going from RRIRFRPPRLPRPRPRPRRTPRP to RRIRFRPPRLPRPRPRPRSFPRP, the “shrunken log2 fold change” value falls from 0.375 to -0.138.

Going from RRIRFRPPRLPRPRPRPRSWPRP to RRIRFRPPRLPRPRPRPRTNPRP, the “shrunken log2 fold change” value falls from 0.135 to -0.179.

Compared with RRIRFRPPRLPRPRPRPRVPPRP, RRIRFRPPRLPRPRPRPRVSPRP is lower in “shrunken log2 fold change” value: 0.291 for the first, -0.102 for the second.

RRIRFRPPRLPRPRPRPRWKPRP and RRIRFRPPRLPRPRPRPSARPRP are within 0.2 log units of each other in “shrunken log2 fold change” value: 0.217 for the first, 0.0874 for the second.

Compared with RRIRFRPPRLPRPRPRPSCIPRP, RRIRFRPPRLPRPRPRPSCWPRP is higher in “shrunken log2 fold change” value: -0.603 for the first, 0.144 for the second.

RRIRFRPPRLPRPRPRPSDGPRP and RRIRFRPPRLPRPRPRPSDIPRP are within 0.2 log units of each other in “shrunken log2 fold change” value: -0.391 for the first, -0.385 for the second.

RRIRFRPPRLPRPRPRPSDPPRP and RRIRFRPPRLPRPRPRPSEKPRP are within 0.2 log units of each other in “shrunken log2 fold change” value: -0.106 for the first, 0.0358 for the second.

Going from RRIRFRPPRLPRPRPRPSFHPRP to RRIRFRPPRLPRPRPRPSGSPRP, the “shrunken log2 fold change” value rises from -0.694 to -0.192.

Going from RRIRFRPPRLPRPRPRPSHMPRP to RRIRFRPPRLPRPRPRPSICPRP, the “shrunken log2 fold change” value falls from -0.255 to -0.636.

First: RRIRFRPPRLPRPRPRPSLIPRP
Second: RRIRFRPPRLPRPRPRPSMGPRP
The “shrunken log2 fold change” value of the first is lower: -1.06 for the first, -0.648 for the second.

First: RRIRFRPPRLPRPRPRPSMSPRP
Second: RRIRFRPPRLPRPRPRPSNPPRP
The “shrunken log2 fold change” value of the first is higher: -0.394 for the first, -0.674 for the second.

Going from RRIRFRPPRLPRPRPRPSNSPRP to RRIRFRPPRLPRPRPRPSPSPRP, the “shrunken log2 fold change” value rises from -0.723 to 0.12.

Going from RRIRFRPPRLPRPRPRPSPTPRP to RRIRFRPPRLPRPRPRPSRIPRP, the “shrunken log2 fold change” value falls from 0.313 to -0.119.

Compared with RRIRFRPPRLPRPRPRPSRPPRP, RRIRFRPPRLPRPRPRPSTMPRP is lower in “shrunken log2 fold change” value: 0.616 for the first, -0.391 for the second.

Going from RRIRFRPPRLPRPRPRPSTQPRP to RRIRFRPPRLPRPRPRPSTRPRP, the “shrunken log2 fold change” value rises from -0.503 to -0.013.

Compared with RRIRFRPPRLPRPRPRPSVEPRP, RRIRFRPPRLPRPRPRPSWYPRP is lower in “shrunken log2 fold change” value: -0.18 for the first, -0.401 for the second.

Going from RRIRFRPPRLPRPRPRPSYEPRP to RRIRFRPPRLPRPRPRPTDPPRP, the “shrunken log2 fold change” value falls from 1.66 to -0.0408.

RRIRFRPPRLPRPRPRPTEHPRP and RRIRFRPPRLPRPRPRPTITPRP are within 0.2 log units of each other in “shrunken log2 fold change” value: -0.316 for the first, -0.513 for the second.

RRIRFRPPRLPRPRPRPTKQPRP and RRIRFRPPRLPRPRPRPTLHPRP are within 0.2 log units of each other in “shrunken log2 fold change” value: 0.0621 for the first, -0.0536 for the second.

First: RRIRFRPPRLPRPRPRPTLNPRP
Second: RRIRFRPPRLPRPRPRPTNNPRP
The “shrunken log2 fold change” value of the first is higher: -0.254 for the first, -0.644 for the second.

RRIRFRPPRLPRPRPRPTQCPRP and RRIRFRPPRLPRPRPRPTQHPRP are within 0.2 log units of each other in “shrunken log2 fold change” value: 0.322 for the first, 0.168 for the second.

First: RRIRFRPPRLPRPRPRPTQMPRP
Second: RRIRFRPPRLPRPRPRPTRAPRP
The “shrunken log2 fold change” value of the first is lower: 0.149 for the first, 0.825 for the second.

RRIRFRPPRLPRPRPRPTRIPRP and RRIRFRPPRLPRPRPRPTRNPRP are within 0.2 log units of each other in “shrunken log2 fold change” value: 0.0179 for the first, 0.184 for the second.

RRIRFRPPRLPRPRPRPTSCPRP and RRIRFRPPRLPRPRPRPTSHPRP are within 0.2 log units of each other in “shrunken log2 fold change” value: -0.0685 for the first, -0.193 for the second.

Compared with RRIRFRPPRLPRPRPRPTVPPRP, RRIRFRPPRLPRPRPRPTWHPRP is lower in “shrunken log2 fold change” value: 0.341 for the first, -0.0992 for the second.

RRIRFRPPRLPRPRPRPTWMPRP and RRIRFRPPRLPRPRPRPTWWPRP are within 0.2 log units of each other in “shrunken log2 fold change” value: 0.611 for the first, 0.494 for the second.

For RRIRFRPPRLPRPRPRPTWYPRP, the “shrunken log2 fold change” value was -0.0222.
